Source: the DeepSol protein solubility set

Experiment: soluble on expression in E. coli; label from the status in PepcDB or PDB records

Row | Sequence | soluble on expression in E. coli
1 | MRPMGHAESVMSRFAHRVKSRRSWKDQGLRAFLKAMVARIDGIRWRKGPLEAEEPQSAVSASTKSKRIEQAKRKAGRLWADVVRQNLPCLQQSSGTPIHQALSALRDGGWV | not soluble
2 | MSLRDLPGQTGVQFTTGGVNHFLSWKSGGERHYFTSLAFTHTNRNRTCWLYGLDYQIKEYTYENKAIPKAQFTGELGYFIPVLSDKGRNVCFRIGLSVLGGFETVNWGTSLLPDGAAVTNGDCFIYGGGLTAAFDVWLTDRIILLMQVKERAFFGTDAGNFHTQIGLGVRLIINEGHHHHHH | not soluble
3 | SNAMSTISRDSCPALRAGVRLQHDRARDQWVLLAPERVVELDDIALVVAQRYDGTQSLAQIAQTLAAEFDADASEIETDVIELTTTLHQKRLLRL | soluble
4 | MSLIRMALAAVCALLFSITTMTPFVQASEITISGSTSVARIMDVLAEKYNQQHPETYVAVQGVGSTAGISLLKKGVADIAMTSRYLTESEAQNTLHTFTLAFDGLAIVVNQANPVTNLTREQLYGIYKGQITNWKQVGGNDQKIAVVTREASSGTRYSFESLMGLTKTVKDREVSDVAPTALVVNSNSMMKTLVNHNTQAVGFISIGSVDKSVKAIQFEKADPTSDNIAKHTYQLSRPFLILHYSDNADEQTKEFIAFLKSESAKKLIVEYGYIMPSDVEEGGSHHHHHH | soluble
5 | ALTVRKHYTKEQARVTVVNKYPTHQIITELHRLAAGNVSEKAVAMPLEKLFKGKDIDLKIAEVSSFSVDKKEVALADGSTLTYDALVVGLGSVTAYFGIPGLEENSMVLKSAADANKVFQHVEDRVREYSKTKNEADATILIGGGGLTGVELVGELADIMPNLAKKYGVDHKEIKLKLVEAGPKILPVLPDDLIERATASLEKRGVEFLTGLPVTNVEGNVIDLKDGSKVVANTFVWTGGVQGNPLVGESGLEVNRGRATVNDFLQSTSHEDVFVAGDSAVYFGPDGRPYPPTAQIAWQMGELIGYNLFAYLEGKTLETFKPVNSGTLASLGRKDAVAIIGANSTPLKGLPASLMKEASNVRYLTHIK | not soluble
6 | DDAENIEYKVSISGTSVELTCPLDSDENLKWEKNGQELPQKHDKHLVLQDFSEVEDSGYYVCYTPASNKNTYLYLKARVGSADDAKKDAAKKDDAKKDDAKKDGSQTNKAKRALEVLEAEDKVILKCNSSITLLQGTAGQEVSDNKTLNLGKRIEDPRGMYQCGENAKSFTLQVYYRM | soluble
7 | RFEPSFLDKLFDDEPHVPAPAAMRQLSLEELKNTVARDVEAILNTRIALTEEDLAALPECQRSVLTYGLNDFAGLSLASHYDRTFICKSIQQAIARHEPRLQQVQVTFELNEQSTNALYFAIQALLVVHPAEEPVTFDAMLQPS | not soluble
8 | MNRLQGMELFVEVARTLSFGRAAENLAIPKSTLSRQVAELERSVGLRLLSRTTRRVELTEAGQLYFERCQRIVAEARIAHEELQNLVETPSGPLRVNMPADFGTDFLSEAFTEFSRRYPEVTFYLDLASPEHAERVFQTCDVSIEIGDLPDSTHIARLLGVLPAHLYASPDYLARHGEPQHPDDLPRHECIQFRAGTGRVTRWPLNSGERHVEITPGNRFSVNSVSMVRNLATLGAGIAILAPMGNVREDIESGRLKRILPDWLAGPFPVYAVTDTRMLPAKTRIFVEFLMERLSNKTLAGQNNPAFLNLR | not soluble
9 | MRRVVVTGLGALTPIGVGQEAFHKAQLAGKSGVRPITRFDASALPVRIAAEVDVDPGAYLDRKELRRLDRFVQYALIAAQLALEDAGLKPEDLDPERVGTLVGTGIGGMETWEAQSRVFLERGPNRISPFFIPMMIANMASAHIAMRYGFTGPSSTVVTACATGADALGSALRMIQLGEADLVLAGGTEAAITPMAIGAFAVMRALSTRNEEPEKASRPFTLSRDGFVMGEGAGVLVLEAYEHAKKRGARIYAELVGFGRSADAHHITEPHPEGKGAALAMARALKDAGIAPEQVGYINAHGTSTPVGDRAEVLAIKRVFGDHAKRLMVSSTKSMIGHLLGAAGAVEAIATVQALYHGVIPPTINLEDPDPELDLDFVPEPREAKVDYALSNSFAFGGHNAVLAFKRV | soluble
10 | MGCVPRIEFGCSSQSLTLSWNLRAWNLCRLNTISHFQKLPYPLVASTRKHYKNSLLLKRFLVGVGTEESSLSEDLLDESLSRPLTSDELKSLLIDTERSKLVKKLSEANQQNRFLKRQEHEITNIKTELALMELEVQALVKLAEEIANLGIPQGSRKISGKYIQSHLLSRLDAVQKKMKEQIKGVEAAQSKEVHVFWIGMAESVQVMGSFDGWSQREDLSPEYSALFTKFSTTLFLRPGRYEMKFLVDGEWQISPEFPTSGEGLMENNVLVVE | soluble
11 | GPGSMLEPIFEEITCLFASRNPKHALQGLSDGLRNAATGVGLGLAGVVAGTYGGAKEGGLGGMAKGFGAGMAGFVGLTGYGAYAGVRQIVRGVGNTRSAVSEVSKGEAYWDSNAQAWVRVNLACDFERLPQTDEDLLGTARKAYEKAKKDGTLPTTLNDSAEGGGASASSATTGAGAASVPQGTDTGETKPAAAEPVNYYAFLGVESAATPSEIRKAYTRKALEMHPDKNPNDPNATIKFQELNKIYNVLSHEGTRATYDRYGTVDPMNVPEMTGNPMKELLGAAFLEALVGPLHFFLVFEGGVLFTAEMKRELHARRRLRVAKNLVSWLDNGASGFESAQLALRDAVSTALGPVFVSYVAEEYHLASRQQLHGSNWKREMDSWYSSWATSASSLWHWTTMGARTARRAFVDKNLGEEDILRVLAVANERDVRQIVLQACRLVLFDMSVTPAQRQQRAMRLEELSVMAMKEVAREVASRERIGASEATAAAAEKGTTTKTPADTNATAPPFS | soluble
12 | MENTETLIVEQLKIGNENAYRYIYDHHYALLCYVANGYLKDQFLSETIVGDTIFHLWEIRETLDISVSIRSYLLRAVRNRCINYLNSEREKREIAFSALMPDEITDDKIILSDSHPLGILLERELENEIYKAIDKLPDECRRVFAKSRFEGKSYEEISGELGISINTVKYHIKNALASLHAHLSKYLISLLLFFFR | not soluble
13 | MGSDKIHHHHHHMHSMALPESSYERLRAADCADEIAYVRACLRLYFSGAAAAAGDVSMPNLSAAAVADIARLNKVATFVLKVLSRAPVGERPAELFQWLDTYRRRTVSMNAACLMDSMVIHQALRDRQIDFVFLKGPFQQHLLYDDHFMKPSGDVDILVSPAGFSRARDALRSIGYEVSGKSRSVWWVRFLGEQHMIRGNGPSTVDLHYRLQQPGSPSPRDADGFLRRKRLVEITGTEVPFTSAADTLMLSCISVAKALFNHEPCAGYVCDIRASANRLGEADQQRVLDAAVSQGLDDTLLLGLRAADVLLGATGTLLSERAKPILSRIGNEDLLNMVIAPWLSSLRWPQRRTVLWELCGRAPVRYLAEAAWAASADISRRIFERPASP | not soluble
14 | MGSSHHHHHHSSGLVPRGSHMNIGDTLNHSLLNHPLMLSGSTCKTLSDYTNQWLVLYFYPKDNTPGSSTEGLEFNLLLPQFEQINATVLGVSRDSVKSHDSFCAKQGFTFPLVSDSDAILCKAFDVIKEKTMYGRQVIGIERSTFLIGPTHRIVEAWRQVKVPGHAEEVLNKLKAHAEQ | soluble
15 | MGSDKIHHHHHHMETPMTMSQVDAVVRDPASVVTAIESRFSCRAFSPDRPVSRQQVEEILRIARCAASSTNTQPWKVYVLQGDRRDALVAQVCAAHDATRADSSLTAEYGEVDGYYPSEWVSPYIDRRRHNGWTLYGHLGIGKGEKDKMHAQGQRNYRFFDAPVGLMFTIDRVMGRGSLIDYGMFLQTLMLAARALGLHTCPQAAWNNCAKIVLPFIGAGANEMLVCGMALGYADQSAPVNTYRTPRETVESFTRWI | not soluble
16 | MPNPFSKGWKYLTASLDNKIEENADPVIQIKQAAEAAKKQHADIEQQAASVIGNRNQLQMKLNRLLKDQQSIQEKARQALSLSDSATDPAEQHKYLNAAEVYASQLVGVESEIEQTTTLHQQAEQAAEQATQQVKQSEARLHEQLSQINELTTQAQQAKMQEAAVAASDQINSIDPDRDVPTMDSIREKIERRYADALGSQELMQSSMNERIHEIEATTSERDMRANAKLDAIRAQMRGELPAGSEETEPPADK | not soluble
17 | MELTMKNPTVENLKVLTQEFFSLHWNAVLLGSDYPEWSDIYEFTGSMPNHDKQGVYAFVKNGVVTYIGVGASSNGTGRYAGHGLGKRFQSYSKVVDGRHVPTDPRLVDAGAMITIGFKPEQSYLAYALEMFLIGKMSTEHNINRPSK | not soluble
18 | MLILMDPEETGKAPEIRALKSRAVNRVDSDLGRMEAVKRLKGVEDRRVGSEVFDELTLKTLYKLANSGYLAVLNGAVSTGKEANVFKGITDTDDFVAVKIYRVATSDFKKMQYYIQGDPRFKVRTTNRRQLVQAWVNKEFRNLKRALEAGVRVPEPVTARDNVLIMEFIGKDGVPAPTMRDAPPEDPEEALETIIEYMHRLYKGARLVHGDLSFFNILNHCGEPVIIDVSQAMVLDHPLAGELLERDIENIIRDFRRIGVSVSADYIRERITGK | soluble
19 | MKKIALTLAATSITLVSYSAFSAQDAEHVRLATTTSTYHSGLLDYLLPQFEKDTGYKVDVIAAGTGKALKMGENGDVDLVMTHAPKAEGTFVEKGYGVLPRKLMYNDFVIVGPKADPAKIKDDESVLDVFKEIANKNATFISRGDDSGTHKKEMGFWAQTKIEPNFGGYRSVGQGMGPTLNMASEMQGYTMSDRGTWLAYQNKLDLEILFQGDEKLFNPYQVILVNPERYPTINYQGAKAFSDWLVNPRGQELINGFRLNGKQLFVANAESK | not soluble
20 | ASWSHPQFEKSGGGGGLVPRGSKRADAGTASALAASQLPQATMPGKSMVAIAGSSYQGQNGLAIGVSRISDNGKVIIRLSGTTNSQGKTGVAAGVGYQW | soluble
21 | MGSDKIHHHHHHMNIQEAFNAAAVDYDSLRRILIPCFDDFYKTAVEIIPIERTAPIKVLDLGAGTGLYSGMVQSVFPNAELTLLDLAPEMLEKAKLRFSKMGKSPKILIGDYVETNLDDSYDLIISALSIHHLSDFDKELLYQRIYNFLNPGGIFVNADQVLGKTPDLEELYRQHWLDSVRAKGISEEDLKAAQKRMEYDRMATLEIQLHWLEAAGFQNVDCWYKNFSFAVFGGYRPTI | not soluble
22 | MQDSVLGVMQPDGFQDIVAARFREARAGGLISTVFQIEIDDHTSLVERHGQRAAEVISTTSADRIAAVLRDRDAVTHLDTFKYAVCLEPVRQMDLELCIQLAGRIQAALEEPIALDATAVCITSSVGFCQQTKVLSRSGEAWLAAAGHALREAHLNGPGAIRAYSLEHHHHHH | not soluble
23 | MAAKRLAVLCIFLLPNTQFRQLRLAETAEELPQLLREAEKASWTYLEFLESITRYELAKREAKSLEKRMKWARFPFVKSLDEFELRGQNVLTARQLSQLRELSWLEQQYNLILLGPPGIGKTYIAIGLGLEAVYRGFHVYFATMGELVQLLKSEEYLNKSKVQLKRIRNADLVIIDDLMYMAMDQREANLFFHLINHLYERSSIILTSNKSPEEWGHLIGDQGITTAILDRLLHRVEVIHGGENEESHRMKNRKSIFSAEVLEHHHHHH | not soluble
24 | SSFLGGLFGPACEIDVILNDAESRKTAELKTEEGKLEKHYLFYDGESVSGKVNINVKQTSKRLEHQGIRIEFVGQIELFSDKSNTHEFVNLVKELALPGELTQNRSYDFEFMQVEKPYESYVGANVRLRYFLKVTIVRRLSDLVKEYDLIVHQLATYPDVNNSIKMEVGIEDCLHIEFEYNKSKYHLKDVIVGKIYFLLVRIKIQHMELQLIKKEMTGIGPSTTTETETVAKYEIMEGAPVKGESIPIRLFLAGYDLTPTMRDVNKKFSVRYFLNLVLVDEEDRRYFKQQEIVLWRKAPEKMRKRNFHQRYESPEPRPSLSAEQPEM | soluble
25 | NNELSPVALRQMSCAAGTTQTACTDDNALAYYNNSKGGRFVLALLSDHQDLKWARFPKSDGTGTIYTELEPPCRFVTDTPKGPKVKYLYFIKGLNNLNRGMVLESLAATVRLQLEHHHHHH | soluble
